Measurements from publication doi:10.1101/2024.05.29.596450v1.

Substrate: O=C(Cc1cccs1)N[C@@H]1C(=O)N2C(C(=O)O)=C(/C=C/c3ccc([N+](=O)[O-])cc3[N+](=O)[O-])CS[C@H]12
Test: purified protein
Details: nitrocefin 50-200 μM, phosphate buffer pH 7.4

B1: PBP2a (Staphylococcus aureus) (protein)
chain: YASKDKEINNTIDAIEDKNFKQVYKDSSYISKSDNGEVEMTERPIKIYNSLGVKDINIQDRKIKKVSKNKKRVDAQYKIKTNYGNIDRNVQFNFVKEDGMWKLDWDHSVIIPGMQKDQSIHIENLKSERGKILDRNNVELANTGTAYEIGIVPKNVSKKDYKAIAKELSISEDYIKQQMDQKWVQDDTFVPLKTVKKMDEYLSDFAKKFHLTTNETESRNYPLEKATSHLLGYVGPINSEELKQKEYKGYKDDAVIGKKGLEKLYDKKLQHEDGYRVTIVDDNSNTIAHTLIEKKKKDGKDIQLTIDAKVQKSIYNNMKNDYGSGTAIHPQTGELLALVSTPSYDVYPFMYGMSNEEYNKLTEDKKEPLLNKFQITTSPGSTQKILTAMIGLNNKTLDDKTSYKIDGKGWQKDKSWGGYNVTRYEVVNGNIDLKQAIESSDNIFFARVALELGSKKFEKGMKKLGVGEDIPSDYPFYNAQISNKNLDNEILLADSGYGQGEILINPVQILSIYSALENNGNINAPHLLKDTKNKVWKKNIISKENINLLTDGMQQVVNKTHKEDIYRSYANLIGKSGTAELKMKQGETGRQIGWFISYDKDNPNMMMAINVKDVQDKGMASYNAKISGKVYDELYENGNKKYDIDE
**Q.** B1 was tested. Which Km did it give?
**A.** 29.28 µM

**Q.** And the kcat?
**A.** 259.1 s⁻¹
